Results taken from the supplement of paper PMC9732359.
± gives the uncertainty stated by the source.

Assay: protein stability index of a GFP-peptide fusion (yeast GPS) (PSI 1-4); higher = more stable; sorted into four equal gates, so the index is relative within each strain
In short: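 For each peptide, the protein stability index sums the read frequency in every gate after multiplying it by the gate number. Read frequencies came from plasmids that were PCR-amplified from each gate and Illumina-sequenced, with reads assigned to strains by barcodes. The gates were four equal bins of GFP/Cherry fluorescence ratio applied to mid-log yeast in leucine-free medium carrying a pooled library of tiled 17-residue yeast protein peptides fused downstream of GFP on a Cherry-expressing plasmid.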

Sequence	protein stability index (doa10∆)	protein stability index (pdr5∆)	protein stability index (san1∆)	protein stability index (ubr1∆)
WAADSVSSRVRGYTCQF [FAS1]	2.56 ± 0.29	2.62 ± 0.15	2.71 ± 0.11	2.69 ± 0.13
QSDSAKVEIKKVNSRDD [PRP28]	3.08 ± 0.079	3.44 ± 0.067	2.73 ± 0.088	2.9 ± 0.12
LEFARITPMNDDQCMLI [SIN4]	2.63 ± 0.074	2.82 ± 0.089	2.25 ± 0.051	3.31 ± 0.067
FIKLQKIDIIELQKSLS [FAS1]	2.15 ± 0.045	2 ± 0.044	2.04 ± 0.059	2.28 ± 0.047
MTAVRRSTRIRTKSQVI [IRR1]	2.9 ± 0.15	3.23 ± 0.081	3.42 ± 0.077	3.38 ± 0.1
YTETDPAKVAEEGINKF [SRP54]	3.05 ± 0.1	3.3 ± 0.097	2.9 ± 0.089	3.04 ± 0.095
SIMAVTFKDGVILGADS [PRE3]	1.66 ± 0.1	2.61 ± 0.094	2.94 ± 0.086	2.59 ± 0.14
HSDMASKMYNTDKKAFL [PRP8]	2.91 ± 0.057	2.65 ± 0.056	2.89 ± 0.051	2.98 ± 0.059
LRAIEKNDDNSCRNPEH [YIL149C/MLP2]	3.19 ± 0.16	3.25 ± 0.088	3.27 ± 0.13	3.15 ± 0.14
ADQEQAKLIRSAIEHTT [RPO21]	3.19 ± 0.12	2.96 ± 0.15	2.82 ± 0.1	2.84 ± 0.1
EQLSKQRDLYKRKEELV [SMC2]	2.34 ± 0.15	3.1 ± 0.19	2.67 ± 0.086	2.73 ± 0.084
PGDIVRAQVLSLGDGTN [CSL4]	3.62 ± 0.24	3.26 ± 0.12	3.14 ± 0.12	3.29 ± 0.12
VPNSSDQAELPNNASSH [SNF2]	2.26 ± 0.13	2.85 ± 0.21		2.74 ± 0.16
RLKEINGWEKYLHNVEL [ISW2]	2.97 ± 0.12			2.94 ± 0.057
MSAAPVQDKDTLSNAER [GAL11]	3.6 ± 0.15	3.07 ± 0.16	3.34 ± 0.073	3.04 ± 0.079
GIDLAYNMYDAYGNWFN [PRP8]	2.94 ± 0.049	3.08 ± 0.04	3.05 ± 0.058	3 ± 0.045
RYPMNLLEFIIDEIAYL [ECM29]	2.43 ± 0.097	2.89 ± 0.1	2.75 ± 0.091	2.89 ± 0.2
VNEMNDQLAQELKDLET [NNF1]	2.9 ± 0.23		3.27 ± 0.12	
SVWKPIAAIIGRLNTLV [IRR1]	1.68 ± 0.03	1.56 ± 0.026	2.04 ± 0.058	1.63 ± 0.024
IACVLTVINEQQREAVR [RPL35A]	1.73 ± 0.057	2.12 ± 0.068	2.18 ± 0.08	2.23 ± 0.066
PAEVGRAIRSEKYGKQV [BRR2]	3.27 ± 0.22	3.15 ± 0.073		
DYPFTQLGYIENSFYKK [POP1]		3.14 ± 0.17	2.98 ± 0.1	3.44 ± 0.13
TIGPYRARKDRMRVSVL [SSN3]	3.19 ± 0.15	2.99 ± 0.085	3.07 ± 0.083	3.12 ± 0.052
QESSSTLSTHSTTTSVN [SIN4]	3.04 ± 0.04	3.12 ± 0.037	3.12 ± 0.028	3.132 ± 0.029
ALNKISKYYPGVIIKVE [SNU114]	2.04 ± 0.057	1.53 ± 0.07	1.9 ± 0.085	2.33 ± 0.063
YVRAKFLDYTTDNVSMY [PRP8]	2.82 ± 0.059	2.73 ± 0.064	2.54 ± 0.063	2.82 ± 0.061

Sequence	protein stability index (doa10∆)	protein stability index (pdr5∆)	protein stability index (san1∆)	protein stability index (ubr1∆)
KTARGKAALERLKVFEG [RPL16A]	2.28 ± 0.15	2.37 ± 0.089	2.95 ± 0.1	2.1 ± 0.12
AKLESLLENSVDKNFDK [MTW1]	3.39 ± 0.06	3.24 ± 0.076	3.34 ± 0.048	3.32 ± 0.066
KRPYESSRLDAELKLAG [RPS9A]	3.24 ± 0.088	3.05 ± 0.065	2.81 ± 0.072	2.96 ± 0.14
VLNMLYWVPDWDGVIPT [RPO21]	2.92 ± 0.067	2.63 ± 0.066	2.92 ± 0.055	3.16 ± 0.038
TKIAQSQTMAETYVASY [ECM29]	1.92 ± 0.037	2.48 ± 0.036	2.27 ± 0.044	2.22 ± 0.034
SLENNIREFPEYFAAQA [RPL10]	2.3 ± 0.065	2.66 ± 0.068	2.75 ± 0.05	2.52 ± 0.062
AAHYNRERIKRGAHVEK [PRP8]			2.79 ± 0.29	2.77 ± 0.19
TRVHQLMLEDAVTEREV [MCD1]	3.35 ± 0.22	2.92 ± 0.16	2.36 ± 0.23	2.89 ± 0.12
NSGIIPGNRNADNVDKI [FAS2]	2.52 ± 0.083	2.52 ± 0.1	3.03 ± 0.091	3.04 ± 0.05
MRELGLIQSTEFPSITS [YOR098C/NUP1]	3.12 ± 0.1	3.29 ± 0.092	2.21 ± 0.12	3.17 ± 0.078
TSRVFAKIISKAPEQFI [YML103C/NUP188]		3.08 ± 0.14		
FALPAGSPKSATSKTSE [CDC53]	2.9 ± 0.17	2.92 ± 0.13		
SGTDGSTIGILLLTIQL [SRP72]	3.09 ± 0.064	2.91 ± 0.064	3.35 ± 0.054	3.15 ± 0.057
TLFSSIEPQVINYLALN [ECM29]	2.31 ± 0.07	2.64 ± 0.096	2.29 ± 0.21	2.09 ± 0.082
QANSNLTLLERKWVIFI [NUT1]	1.85 ± 0.055	1.92 ± 0.044	1.67 ± 0.094	2.19 ± 0.061
FGRKNDRQCMIMDELLS [DIB1]	2.57 ± 0.047	2.65 ± 0.038	2.49 ± 0.057	2.73 ± 0.034
SKDIETLKKEWLKEYED [YIL149C/MLP2]	3.34 ± 0.093	3.16 ± 0.085	3.26 ± 0.053	3.15 ± 0.051
DIPTIADEHFWADNYER [BRN1]	3.14 ± 0.2	3.18 ± 0.1	3.34 ± 0.069	3.22 ± 0.04
PRQTKKAKAQAQAQAQA [PGD1]	3.2 ± 0.077	3.46 ± 0.056	3.22 ± 0.036	3.06 ± 0.059
PQLSKAGKFPTPVSHND [RPL1A]	2.31 ± 0.04	2.87 ± 0.048	2.36 ± 0.048	2.62 ± 0.031
ILDSLPSVIHSSVEMLL [YDL116W/NUP84]	1.97 ± 0.055	1.44 ± 0.056	1.39 ± 0.084	1.44 ± 0.041
KNEPDYSKAKYPDLQPF [CDC53]	2.35 ± 0.086	2.58 ± 0.089	2.06 ± 0.13	2.5 ± 0.085
NKNGNAVCSTATVVSTN [PGD1]	2.77 ± 0.059	2.83 ± 0.061	2.3 ± 0.073	2.81 ± 0.053
DLLKFENISLAEFILKN [BRR2]	2.94 ± 0.082	3.3 ± 0.09	2.82 ± 0.062	2.83 ± 0.074
RYFWLDHNGVPFPQYPA [ITC1]	2.22 ± 0.096	2.81 ± 0.086	3.08 ± 0.1	2.47 ± 0.06
LKENEENEDGNIEERKE [BRR2]		3.56 ± 0.27	3.13 ± 0.098	
